These results are taken from patent US20160250128A1 (INFINITEC ACTIVOS S L, published 2016).

To fix the notation:
B1: Palm-Ile-Ser-Leu-Leu-Asp-Ala-Gln-Ser-NH2 (peptide)
peptide: ISLLDAQS
HELM: PEPTIDE1{[CCCCCCCCCCCCCCCC(=O)[*:2]].I.S.L.L.D.A.Q.S.[am]}$$$$V2.0
SMILES: CCCCCCCCCCCCCCCC(=O)N[C@H](C(=O)N[C@@H](CO)C(=O)N[C@@H](CC(C)C)C(=O)N[C@@H](CC(C)C)C(=O)N[C@@H](CC(=O)O)C(=O)N[C@@H](C)C(=O)N[C@@H](CCC(N)=O)C(=O)N[C@@H](CO)C(N)=O)[C@@H](C)CC
B2: Palm-Ile-Ser-Leu-Leu-Asp-(d)Ala-Gln-Ser-NH2 (peptide)
peptide: ISLLDAQS
HELM: PEPTIDE1{[CCCCCCCCCCCCCCCC(=O)[*:2]].I.S.L.L.D.[dA].Q.S.[am]}$$$$V2.0
SMILES: CCCCCCCCCCCCCCCC(=O)N[C@H](C(=O)N[C@@H](CO)C(=O)N[C@@H](CC(C)C)C(=O)N[C@@H](CC(C)C)C(=O)N[C@@H](CC(=O)O)C(=O)N[C@H](C)C(=O)N[C@@H](CCC(N)=O)C(=O)N[C@@H](CO)C(N)=O)[C@@H](C)CC
B3: Ac-Ile-Ser-Leu-Leu-Asp-(d)Ala-Gln-Ser-NH2 (peptide)
peptide: ISLLDAQS
HELM: PEPTIDE1{[ac].I.S.L.L.D.[dA].Q.S.[am]}$$$$V2.0
SMILES: CC[C@H](C)[C@H](NC(C)=O)C(=O)N[C@@H](CO)C(=O)N[C@@H](CC(C)C)C(=O)N[C@@H](CC(C)C)C(=O)N[C@@H](CC(=O)O)C(=O)N[C@H](C)C(=O)N[C@@H](CCC(N)=O)C(=O)N[C@@H](CO)C(N)=O
B4: Ac-Ile-Ser-(d)Leu-Leu-Asp-(d)Ala-Gln-Ser-NH2 (peptide)
peptide: ISLLDAQS
HELM: PEPTIDE1{[ac].I.S.[dL].L.D.[dA].Q.S.[am]}$$$$V2.0
SMILES: CC[C@H](C)[C@H](NC(C)=O)C(=O)N[C@@H](CO)C(=O)N[C@H](CC(C)C)C(=O)N[C@@H](CC(C)C)C(=O)N[C@@H](CC(=O)O)C(=O)N[C@H](C)C(=O)N[C@@H](CCC(N)=O)C(=O)N[C@@H](CO)C(N)=O
B5: Palm-Ile-Ser-(d)Leu-Leu-Asp-(d)Ala-Gln-Ser-NH2 (peptide)
peptide: ISLLDAQS
HELM: PEPTIDE1{[CCCCCCCCCCCCCCCC(=O)[*:2]].I.S.[dL].L.D.[dA].Q.S.[am]}$$$$V2.0
SMILES: CCCCCCCCCCCCCCCC(=O)N[C@H](C(=O)N[C@@H](CO)C(=O)N[C@H](CC(C)C)C(=O)N[C@@H](CC(C)C)C(=O)N[C@@H](CC(=O)O)C(=O)N[C@H](C)C(=O)N[C@@H](CCC(N)=O)C(=O)N[C@@H](CO)C(N)=O)[C@@H](C)CC
B6: Pamitoyl-Ser-Tyr-Ser-Nle-Glu-His-DPhe-Arg-His-Gly-Lys-DPro-Val-NH-(CH2)3-(OCH2CH2)2-CH2-NH2, coupled to capsules (peptide)
peptide: SYSXEHFRHGKPV
modifications: N-terminal palmitoyl; Nle at 4 (X); D-Phe at 7; D-Pro at 12; C-terminal NH-(CH2)3-(OCH2CH2)2-CH2-NH2
notes: Coupled to the outer surface of fluorescent polymer capsules in the assay; Stereochemistry of the residue at 9 is not specified; also called peptide of formula (I), AA1 = Histidine
B7: Pamitoyl-Ser-Tyr-Ser-Nle-Glu-His-DPhe-Arg-Phe-Gly-Lys-DPro-Val-NH-(CH2)3-(OCH2CH2)2-CH2-NH2, coupled to capsules (peptide)
peptide: SYSXEHFRFGKPV
modifications: N-terminal palmitoyl; Nle at 4 (X); D-Phe at 7; D-Pro at 12; C-terminal NH-(CH2)3-(OCH2CH2)2-CH2-NH2
notes: Coupled to the outer surface of fluorescent polymer capsules in the assay; Stereochemistry of the residue at 9 is not specified; also called peptide of formula (I), AA1 = Phenylalanine
B8: Pamitoyl-Ser-Tyr-Ser-Nle-Glu-His-DPhe-Arg-Tyr-Gly-Lys-DPro-Val-NH-(CH2)3-(OCH2CH2)2-CH2-NH2, coupled to capsules (peptide)
peptide: SYSXEHFRYGKPV
modifications: N-terminal palmitoyl; Nle at 4 (X); D-Phe at 7; D-Pro at 12; C-terminal NH-(CH2)3-(OCH2CH2)2-CH2-NH2
notes: Coupled to the outer surface of fluorescent polymer capsules in the assay; Stereochemistry of the residue at 9 is not specified; also called peptide of formula (I), AA1 = Tyrosine
B9: Pamitoyl-Ser-Tyr-Ser-Nle-Glu-His-DPhe-Arg-(3-amino-3-(1-naphthyl) propionic acid)-Gly-Lys-DPro-Val-NH-(CH2)3-(OCH2CH2)2-CH2-NH2, coupled to capsules (peptide)
peptide: SYSXEHFRXGKPV
modifications: N-terminal palmitoyl; Nle at 4 (X); D-Phe at 7; 3-amino-3-(1-naphthyl) propionic acid at 9 (X); D-Pro at 12; C-terminal NH-(CH2)3-(OCH2CH2)2-CH2-NH2
notes: Coupled to the outer surface of fluorescent polymer capsules in the assay; also called peptide of formula (I), AA1 = 3-amino-3-(1-naphthyl) propionic acid
B10: Pamitoyl-Ser-Tyr-Ser-Nle-Glu-His-DPhe-Arg-(3-amino-3-(biphenyl) propionic acid)-Gly-Lys-DPro-Val-NH-(CH2)3-(OCH2CH2)2-CH2-NH2, coupled to capsules (peptide)
peptide: SYSXEHFRXGKPV
modifications: N-terminal palmitoyl; Nle at 4 (X); D-Phe at 7; 3-amino-3-(biphenyl) propionic acid at 9 (X); D-Pro at 12; C-terminal NH-(CH2)3-(OCH2CH2)2-CH2-NH2
notes: Coupled to the outer surface of fluorescent polymer capsules in the assay; also called peptide of formula (I), AA1 = 3-amino-3-(biphenyl) propionic acid
B11: Pamitoyl-Ser-Tyr-Ser-Nle-Glu-His-DPhe-Arg-(3-(2-Naphthyl)-D-alanine)-Gly-Lys-DPro-Val-NH-(CH2)3-(OCH2CH2)2-CH2-NH2, coupled to capsules (peptide)
peptide: SYSXEHFRXGKPV
modifications: N-terminal palmitoyl; Nle at 4 (X); D-Phe at 7; 3-(2-Naphthyl)-D-alanine at 9 (X); D-Pro at 12; C-terminal NH-(CH2)3-(OCH2CH2)2-CH2-NH2
notes: Coupled to the outer surface of fluorescent polymer capsules in the assay; also called peptide of formula (I), AA1 = 3-(2-Naphthyl)-D-alanine
B12: Pamitoyl-Ser-Tyr-Ser-Nle-Glu-His-DPhe-Arg-(L-3,4-dihydroxyphenylalanine)-Gly-Lys-DPro-Val-NH-(CH2)3-(OCH2CH2)2-CH2-NH2, coupled to capsules (peptide)
peptide: SYSXEHFRXGKPV
modifications: N-terminal palmitoyl; Nle at 4 (X); D-Phe at 7; L-3,4-dihydroxyphenylalanine at 9 (X); D-Pro at 12; C-terminal NH-(CH2)3-(OCH2CH2)2-CH2-NH2
notes: Coupled to the outer surface of fluorescent polymer capsules in the assay; also called peptide of formula (I), AA1 = L-3,4-dihydroxyphenylalanine
B13: Pamitoyl-Ser-Tyr-Ser-Nle-Glu-His-DPhe-Arg-(5-hydroxytryptophan)-Gly-Lys-DPro-Val-NH-(CH2)3-(OCH2CH2)2-CH2-NH2, coupled to capsules (peptide)
peptide: SYSXEHFRXGKPV
modifications: N-terminal palmitoyl; Nle at 4 (X); D-Phe at 7; 5-hydroxytryptophan at 9 (X); D-Pro at 12; C-terminal NH-(CH2)3-(OCH2CH2)2-CH2-NH2
notes: Coupled to the outer surface of fluorescent polymer capsules in the assay; also called peptide of formula (I), AA1 = 5-hydroxytryptophan

T1 sequence (Q01726 whole entry): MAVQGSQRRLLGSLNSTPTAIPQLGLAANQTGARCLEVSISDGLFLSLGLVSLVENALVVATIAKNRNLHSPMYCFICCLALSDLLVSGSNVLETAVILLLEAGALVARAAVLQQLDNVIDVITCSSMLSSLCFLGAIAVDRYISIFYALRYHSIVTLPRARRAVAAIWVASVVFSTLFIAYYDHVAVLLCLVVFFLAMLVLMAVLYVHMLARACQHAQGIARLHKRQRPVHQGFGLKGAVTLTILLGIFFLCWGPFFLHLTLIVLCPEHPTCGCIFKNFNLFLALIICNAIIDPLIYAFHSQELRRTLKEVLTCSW

The first assay concerns the target Mushroom Tyrosinase (mushroom). Put plainly: cell-based or functional assay.
Take Ac-ISLLDAQS-NH2 [Ac-Ile-Ser-Leu-Leu-Asp-Ala-Gln-Ser-NH2]: the “% INHIBITION TYROSINASE” value turned out to be 28%.

Turning to B1, the “% INHIBITION TYROSINASE” value is 39%.

B2: the “% INHIBITION TYROSINASE” value is 42%.

On to B3, for which the “% INHIBITION TYROSINASE” value was 31%.

In the case of B4, the “% INHIBITION TYROSINASE” value is 40%.

With B5, the “% INHIBITION TYROSINASE” value is 48%.

The next assay has as its target T1, Melanocortin receptor 1 (MC1R) on melanocytes (human, UniProt Q01726 1-317).
T1 construct: whole, on cells; also called MC1 receptor; MCR1 receptors on the melanocyte
The assay can be described thus: flow cytometry, cell-associated fluorescence of peptide-targeted capsules (50 µg/mL, 37° C., 3 h) on melanocytes in a mixed cell population. As to the method: Distinct types of cells were incubated with the capsules of the invention (50 μg/mL) which have been targeted with different peptides of formula (Ia) or non-targeted capsules (50 μg/mL) at 37° C. for 3 h. The peptides of formula (I) used to target the capsules in this example are peptides of formula Pamitoyl-Ser-Tyr-Ser-Nle-Glu-His-DPhe-Arg-(AA₁)-Gly-Lys-DPro-Val-NH—(CH₂)₃—(OCH₂CH₂)₂—CH₂—NH₂ wherein the nature of the aminoacid in position 9 (AA₁) is indicated in the first column of table 3. Cells were washed and stained with receptor-specific antibody or isotype control antibody to specifically detect distinct types of cells. Subsequently, cells were analyzed by flow cytometry on a FacsCalibur. The cell associated fluorescence was calculated by dividing the mean cell fluorescence intensity (mfi) for a given sample by the mfi of melanocytes incubated with targeted capsules, which was set at 100% (see FIG. 5 and table 4).
Background: A flow cytometer gives signals particle by particle.
Consider B6, for which the “Cell specific binding (%)” value amounted to 58%.

For the molecule B7, the “Cell specific binding (%)” value turned out to be 85%.

Take B8: the “Cell specific binding (%)” value came to 80%.

Regarding B9, the “Cell specific binding (%)” value is 75%.

In the case of B10, the “Cell specific binding (%)” value is 74%.

B11: the “Cell specific binding (%)” value turned out to be 71%.

On to B12, for which the “Cell specific binding (%)” value stood at 80%.

For the molecule B13, the “Cell specific binding (%)” value amounted to 73%.
